Reference: publication PMC5121064

Target: Sec14/PH module of NF1, NanoBRET construct
Experiment: FRET or BRET

Chain of Sec14/PH module of NF1, NanoBRET construct (P21359 2-2839): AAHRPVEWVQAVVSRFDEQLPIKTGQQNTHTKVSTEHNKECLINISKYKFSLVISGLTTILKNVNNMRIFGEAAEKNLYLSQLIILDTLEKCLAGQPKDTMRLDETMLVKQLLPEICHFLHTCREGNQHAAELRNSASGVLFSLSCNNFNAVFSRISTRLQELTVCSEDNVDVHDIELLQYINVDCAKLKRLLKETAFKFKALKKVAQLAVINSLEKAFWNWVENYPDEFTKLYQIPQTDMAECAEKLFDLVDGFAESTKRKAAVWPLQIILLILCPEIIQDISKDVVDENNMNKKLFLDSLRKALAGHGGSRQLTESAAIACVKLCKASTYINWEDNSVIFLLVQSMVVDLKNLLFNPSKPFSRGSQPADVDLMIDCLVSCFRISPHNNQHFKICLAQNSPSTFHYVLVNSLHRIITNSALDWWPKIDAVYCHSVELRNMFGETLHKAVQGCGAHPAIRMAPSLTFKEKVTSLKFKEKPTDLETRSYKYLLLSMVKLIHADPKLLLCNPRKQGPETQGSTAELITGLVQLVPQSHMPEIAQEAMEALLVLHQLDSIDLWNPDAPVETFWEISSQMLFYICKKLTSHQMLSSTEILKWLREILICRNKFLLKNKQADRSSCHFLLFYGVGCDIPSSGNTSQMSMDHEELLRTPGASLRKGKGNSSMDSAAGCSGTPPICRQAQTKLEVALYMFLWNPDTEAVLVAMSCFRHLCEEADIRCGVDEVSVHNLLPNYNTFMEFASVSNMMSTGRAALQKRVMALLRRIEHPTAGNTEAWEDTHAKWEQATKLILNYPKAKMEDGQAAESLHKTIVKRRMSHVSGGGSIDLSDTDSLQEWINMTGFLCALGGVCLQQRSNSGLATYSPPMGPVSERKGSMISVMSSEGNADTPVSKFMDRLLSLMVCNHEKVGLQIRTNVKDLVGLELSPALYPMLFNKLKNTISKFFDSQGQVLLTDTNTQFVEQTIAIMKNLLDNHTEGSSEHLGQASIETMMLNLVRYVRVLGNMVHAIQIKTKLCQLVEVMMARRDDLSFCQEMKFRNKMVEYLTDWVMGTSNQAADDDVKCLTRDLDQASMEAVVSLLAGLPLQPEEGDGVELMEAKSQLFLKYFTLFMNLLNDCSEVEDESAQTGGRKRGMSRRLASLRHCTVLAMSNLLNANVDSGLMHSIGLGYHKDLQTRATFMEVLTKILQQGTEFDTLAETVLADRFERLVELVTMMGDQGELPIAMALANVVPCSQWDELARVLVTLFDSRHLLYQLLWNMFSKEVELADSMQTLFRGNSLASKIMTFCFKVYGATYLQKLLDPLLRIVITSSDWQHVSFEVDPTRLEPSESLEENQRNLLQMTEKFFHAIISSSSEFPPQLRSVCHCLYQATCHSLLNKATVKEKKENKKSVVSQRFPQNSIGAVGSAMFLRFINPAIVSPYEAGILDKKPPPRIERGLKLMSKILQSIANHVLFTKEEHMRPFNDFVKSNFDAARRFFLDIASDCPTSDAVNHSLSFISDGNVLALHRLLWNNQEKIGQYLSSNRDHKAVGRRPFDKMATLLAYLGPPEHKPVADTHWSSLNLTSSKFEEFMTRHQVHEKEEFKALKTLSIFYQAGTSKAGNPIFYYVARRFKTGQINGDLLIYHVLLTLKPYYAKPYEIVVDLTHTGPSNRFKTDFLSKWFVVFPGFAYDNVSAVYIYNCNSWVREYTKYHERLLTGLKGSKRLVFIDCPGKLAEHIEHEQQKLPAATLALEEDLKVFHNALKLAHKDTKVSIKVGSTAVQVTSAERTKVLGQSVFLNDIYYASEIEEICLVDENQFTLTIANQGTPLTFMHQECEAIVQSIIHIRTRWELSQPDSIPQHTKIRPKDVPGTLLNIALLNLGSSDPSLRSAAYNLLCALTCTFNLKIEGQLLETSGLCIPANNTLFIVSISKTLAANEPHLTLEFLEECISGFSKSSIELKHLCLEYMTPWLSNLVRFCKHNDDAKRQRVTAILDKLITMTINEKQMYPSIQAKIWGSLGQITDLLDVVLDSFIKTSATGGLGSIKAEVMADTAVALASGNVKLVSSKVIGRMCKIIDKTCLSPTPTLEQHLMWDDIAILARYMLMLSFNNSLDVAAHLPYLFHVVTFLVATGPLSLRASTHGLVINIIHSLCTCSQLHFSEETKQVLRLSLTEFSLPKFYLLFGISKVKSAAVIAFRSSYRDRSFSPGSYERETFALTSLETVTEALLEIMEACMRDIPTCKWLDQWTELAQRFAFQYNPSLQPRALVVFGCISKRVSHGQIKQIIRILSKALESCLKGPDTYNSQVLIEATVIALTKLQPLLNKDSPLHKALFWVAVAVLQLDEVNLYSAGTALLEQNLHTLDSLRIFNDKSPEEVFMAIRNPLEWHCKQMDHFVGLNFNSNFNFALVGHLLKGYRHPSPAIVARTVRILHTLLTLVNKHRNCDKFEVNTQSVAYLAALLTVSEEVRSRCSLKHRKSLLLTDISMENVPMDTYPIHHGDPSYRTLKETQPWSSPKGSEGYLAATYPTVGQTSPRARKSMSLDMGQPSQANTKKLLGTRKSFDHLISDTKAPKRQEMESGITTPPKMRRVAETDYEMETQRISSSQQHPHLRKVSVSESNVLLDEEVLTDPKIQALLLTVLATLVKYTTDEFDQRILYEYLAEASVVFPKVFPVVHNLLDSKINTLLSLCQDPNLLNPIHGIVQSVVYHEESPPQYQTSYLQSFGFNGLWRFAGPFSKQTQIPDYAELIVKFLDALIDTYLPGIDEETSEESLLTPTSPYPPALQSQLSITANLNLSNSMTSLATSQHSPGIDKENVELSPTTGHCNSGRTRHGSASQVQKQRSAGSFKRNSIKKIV

1/τ of the onset of the BRET signal after MOR activation: 0.67 s⁻¹
Substance: Gβγ, NanoBRET construct (from UniProt P62873 1-340; P59768 1-71) (complex)
